Measurements: US5928933A, “Process for the enzymatic resolution of N-(alkoxycarbonyl)-4-ketoproline alkyl esters or N-(alkoxycarbonyl)-4-hydroxyproline alkyl esters using Candida antarctica lipase B” (priority 1998, dated 1999)

How the values were obtained:
Type in all cases: biochemical
[1] = Enzyme screens for resolution of diastereomeric mixture CHLP(MEMC)/THLP(MEMC) (Example 13); settings: 0.050M each isomer, 5 h, 5.0 to 50 mg/mL enzyme, 25° C.; for conv. (percent conversion of the diastereomeric mixture): 0.100M potassium phosphate pH 7.0; for % de (diastereomeric excess of the cis-L-isomer): pH 7.0
Description: (§1) An aqueous solution containing 0.050M N-(methoxycarbonyl)-trans-4-hydroxy-L-proline methyl ester and 0.050M N-(methoxycarbonyl)-cis-4-hydroxy-L-proline methyl ester in 0.100M potassium phosphate (pH 7.0) was mixed with 5.0 to 50 mg/mL of commercial enzyme preparations (listed in the table below) at 25° C. The reactions were analyzed after 5 h by removal of a 0.200 mL sample and mixing with an equivalent volume of 0.100M propionic acid (HPLC internal standard) in water. The resulting solution was filtered through a 10K molecular weight cut-off filter to remove the enzyme and the filtrate analyzed by high pressure liquid chromatography on a HPX-87H column (Bio-Rad, 30 cm×7.8 mm) to determine the percent conversion of the diastereomeric mixture, and the diastereomeric excess of the N-(methoxycarbonyl)-cis-4-hydroxy-L-proline methyl ester.

[2] = Enzyme screens for resolution of racemic N-(acetyl)-4-keto-D,L-proline methyl ester (Example 7, comparative); settings: 0.100M racemate, 5 h, 5.0 to 30 mg/mL enzyme, 25° C.; for conv. (percent conversion of the racemate): 0.20M sodium succinate pH 6.0; for % ee (enantiomeric excess of the D-isomer): pH 6.0
Description: (§2) An aqueous solution (1.0 mL) containing 0.100M racemic N-(acetyl)-4-keto-D,L-proline methyl ester in 0.20M sodium succinate (pH 6.0) was mixed with 5.0 to 30 mg/mL of commercial enzyme preparations (listed in the table below) at 25° C. […] The dichloromethane extract was then analyzed by chiral gas chromatography on a Chiraldex G-TA column (Advanced Separation Technologies, Inc., 50 m×0.32 mm ID) to determine the percent conversion of the racemate, and the enantiomeric excess of the N-(acetyl)-4-keto-D-proline methyl ester.

[3] = Enzyme screens for resolution of racemic N-(methoxycarbonyl)-4-keto-D,L-proline methyl ester (Example 1); settings: 0.100M racemate, 5.0 to 50 mg/mL enzyme, 25° C., optimum; for conv. (percent conversion of the racemate): 0.20M sodium succinate pH 6.0, 5 h or 0.20M sodium acetate pH 5.0, 24 h; for % ee (enantiomeric excess of the D-isomer; L-isomer with porcine liver esterase): pH 6.0, 5 h or pH 5.0, 24 h
Description: An aqueous solution (1.0 mL) containing 0.100M racemic N-(methoxycarbonyl)-4-keto-D,L-proline methyl ester in either 0.20M sodium succinate (pH 6.0) or 0.20M sodium acetate (pH 5.0) was mixed with 5.0 to 50 mg/mL of commercial enzyme preparations (listed in the table below) at 25° C. […] The dichloromethane extract was then analyzed by chiral gas chromatography on a Chiraldex G-TA column (Advanced Separation Technologies, Inc., 50 m×0.32 mm ID) to determine the percent conversion of the racemate, and the enantiomeric excess of the N-(methoxycarbonyl)-4-keto-D-proline methyl ester.

[4] = Enzyme screens for resolution of diastereomeric mixture CHDP(MEMC)/THLP(MEMC) (Example 9); settings: 0.050M each isomer, 5 h or 24 h, 5.0 to 50 mg/mL enzyme, 25° C.; for conv. (percent conversion of the diastereomeric mixture): 0.100M potassium phosphate pH 7.0; for % de (diastereomeric excess of the D-isomer, CHDP(MEMC)): pH 7.0
Description: as §1, with “aqueous solution (1.0 mL) containing 0.050M” for “aqueous solution containing 0.050M”, “and 0.050M N-(methoxycarbonyl)-cis-4-hydroxy-D-proline methyl ester” for “and 0.050M N-(methoxycarbonyl)-cis-4-hydroxy-L-proline methyl ester”, “after 5 h or 24 h by” for “after 5 h by”, “conversion of each isomer of the diastereomeric” for “conversion of the diastereomeric”, “of the N-(methoxycarbonyl)-cis-4-hydroxy-D-proline methyl ester.” for “of the N-(methoxycarbonyl)-cis-4-hydroxy-L-proline methyl ester.”

[5] = Enzyme screens for resolution of racemic N-(methoxycarbonyl)-4,4-dimethoxy-D,L-proline methyl ester (Example 8, comparative); settings: 0.100M racemate, 6 h or 17 h, 5.0 to 30 mg/mL enzyme, 25° C.; for conv. (percent conversion of the racemate): 0.25M potassium phosphate pH 7.0; for % ee (enantiomeric excess of the D-isomer): pH 7.0
Description: as §2, with “N-(methoxycarbonyl)-4,4-dimethoxy-D,L-proline” for “N-(acetyl)-4-keto-D,L-proline”, “0.25M potassium phosphate” for “0.20M sodium succinate”, “7.0)” for “6.0)”, “ethyl acetate” for “dichloromethane”, “N-(methoxycarbonyl)-4,4-dimethoxy-D-prolinemethyl” for “the N-(acetyl)-4-keto-D-proline methyl”

Row | Molecule | conv. (percent conversion of the diastereomeric mixture) [1] | % de (diastereomeric excess of the cis-L-isomer) [1] | conv. (percent conversion of the racemate) [2] | % ee (enantiomeric excess of the D-isomer) [2] | conv. (percent conversion of the racemate) [3] | % ee (enantiomeric excess of the D-isomer; L-isomer with porcine liver esterase) [3] | conv. (percent conversion of the diastereomeric mixture) [4] | % de (diastereomeric excess of the D-isomer, CHDP(MEMC)) [4] | conv. (percent conversion of the racemate) [5] | % ee (enantiomeric excess of the D-isomer) [5]
1 | protease, chymopapain: commercial enzyme preparation, source papaya latex | 0% | 0% | 0% | 0% | 0% | 0% | 0% | 0% | – | –
2 | protease, pepsin: commercial enzyme preparation, source porcine stomach mucosa | 0% | 0% | 0% | 0% | 0% | 0% | 0% | 0% | – | –
3 | protease, type XXVII: commercial enzyme preparation, (Nagarase) (protein, UniProt P00782 108-382, looked up) Subtilisin BPN': AQSVPYGVSQIKAPALHSQGYTGSNVKVAVIDSGIDSSHPDLKVAGGASMVPSETNPFQDNNSHGTHVAGTVAALNNSIGVLGVAPSASLYAVKVLGADGSGQYSWIINGIEWAIANNMDVINMSLGGPSGSAALKAAVDKAVASGVVVVAAAGNEGTSGSSSTVGYPGKYPSVIAVGAVDSSNQRASFSSVGPELDVMAPGVSIQSTLPGNKYGAYNGTSMASPHVAGAAALILSKHPNWTNTQVRSSLENTTTKLGDSFYYGKGLINVQAAAQ | 17% | 16% | – | – | 27% | 21% | 2% | 4% | 44% | 30%
4 | protease, type X: commercial enzyme preparation, source B. thermoproteoliticus rokko (protein, UniProt P00800 233-548, looked up) Thermolysin: ITGTSTVGVGRGVLGDQKNINTTYSTYYYLQDNTRGNGIFTYDAKYRTTLPGSLWADADNQFFASYDAPAVDAHYYAGVTYDYYKNVHNRLSYDGNNAAIRSSVHYSQGYNNAFWNGSQMVYGDGDGQTFIPLSGGIDVVAHELTHAVTDYTAGLIYQNESGAINEAISDIFGTLVEFYANKNPDWEIGEDVYTPGISGDSLRSMSDPAKYGDPDHYSKRYTGTQDNGGVHINSGIINKAAYLISQGGTHYGVSVVGIGRDKLGKIFYRALTQYLTPTSNFSQLRAAAVQSATDLYGSTSQEVASVKQAFDAVGVK | 0% | 0% | 0% | 0% | 0% | 0% | 0% | 0% | – | –
5 | protease, trypsin porcine pancreas: commercial trypsin, source porcine pancreas (protein, UniProt P00761 9-231, looked up) Trypsin: IVGGYTCAANSIPYQVSLNSGSHFCGGSLINSQWVVSAAHCYKSRIQVRLGEHNIDVLEGNEQFINAAKIITHPNFNGNTLDNDIMLIKLSSPATLNSRVATVSLPRSCAAAGTECLISGWGNTKSSGSSYPSLLQCLKAPVLSDSSCKSSYPGQITGNMICVGFLEGGKDSCQGDSGGPVVCNGQLQGIVSWGYGCAQKNKPGVYTKVCNYVNWIQQTIAAN | 0% | 0% | 0% | 0% | 0% | 0% | 0% | 0% | – | –
6 | protease, type XXIV: commercial enzyme preparation, source bacterial (subtil. Carlsberg) (protein, UniProt P00780 106-379, looked up) Subtilisin Carlsberg: AQTVPYGIPLIKADKVQAQGFKGANVKVAVLDTGIQASHPDLNVVGGASFVAGEAYNTDGNGHGTHVAGTVAALDNTTGVLGVAPSVSLYAVKVLNSSGSGSYSGIVSGIEWATTNGMDVINMSLGGASGSTAMKQAVDNAYAKGVVVVAAAGNSGSSGNTNTIGYPAKYDSVIAVGAVDSNSNRASFSSVGAELEVMAPGAGVYSTYPTNTYATLNGTSMASPHVAGAAALILSKHPNLSASQVRNRLSSTATYLGSSFYYGKGLINVEAAAQ | 6% | 5% | – | – | 17% | 18% | 16% | 16% | 42% | 22%
7 | protease (Chirazyme P1): commercial enzyme preparation, source Bacillus licheniformis (protein, UniProt P00780 106-379, looked up) Subtilisin Carlsberg: AQTVPYGIPLIKADKVQAQGFKGANVKVAVLDTGIQASHPDLNVVGGASFVAGEAYNTDGNGHGTHVAGTVAALDNTTGVLGVAPSVSLYAVKVLNSSGSGSYSGIVSGIEWATTNGMDVINMSLGGASGSTAMKQAVDNAYAKGVVVVAAAGNSGSSGNTNTIGYPAKYDSVIAVGAVDSNSNRASFSSVGAELEVMAPGAGVYSTYPTNTYATLNGTSMASPHVAGAAALILSKHPNLSASQVRNRLSSTATYLGSSFYYGKGLINVEAAAQ | 25% | 31% | 43% | 37% | 54% | 65% | 28% | 26% | 44% | 22%
